From PMC9956121

Key:
[1] = molecular target: chicken TAPBPR, luminal domain (chicken (G. gallus)); assay: SPR; biotinylated TAPBPR (about 1000 RU) on a streptavidin chip; HLA UV-irradiated 20 min at 365 nm just before injection at 0-20 μM; 25°C; 150 mM NaCl, 20 mM sodium phosphate pH 7.4, 0.1% Tween 20
[2] = molecular target: human TAPBPR (TAP binding protein, related), luminal domain (human); assay: as above
[3] = molecular target: hTAPBPR^FLQ (S104F, K211L, R270Q), luminal domain, C94S (human); assay: SPR; biotinylated TAPBPR (about 1000 RU) immobilised on a streptavidin chip; peptide-loaded HLA (photolabile peptide, no UV) flowed over at 0-20 µM; 25°C; 150 mM NaCl, 20 mM sodium phosphate pH 7.4, 0.1% Tween 20; 30 µl/min, 60 s injection, 180 s dissociation; kinetic fit or one site-specific binding …
[4] = molecular target: hTAPBPR^KRQ (R105K, K211R, R270Q), luminal domain, C94S (human); assay: as above
[5] = molecular target: hTAPBPR^RQ (K211R, R270Q), luminal domain, C94S (human); assay: as above
[6] = molecular target: hTAPBPR^RQ (K211R and R270Q), soluble ectodomain (human); assay: SPR; biotinylated TAPBPR (about 1000 RU) on a streptavidin chip; HLA UV-irradiated 20 min at 365 nm just before injection at 0-20 μM; 25°C; 150 mM NaCl, 20 mM sodium phosphate pH 7.4, 0.1% Tween 20
[7] = molecular target: hTAPBPR^FLQ (S104F, K211L, and R270Q), soluble ectodomain (human); assay: as above
[8] = molecular target: human TAPBPR (TAP binding protein, related), luminal domain (human); assay: SPR; biotinylated TAPBPR (about 1000 RU) on a streptavidin chip; peptide-loaded HLA, not UV-irradiated, injected at 0-20 μM; 25°C; 150 mM NaCl, 20 mM sodium phosphate pH 7.4, 0.1% Tween 20
[9] = molecular target: chicken TAPBPR, luminal domain (chicken (G. gallus)); assay: as above
[10] = molecular target: chicken TAPBPR, luminal domain (chicken (G. gallus)); assay: ITC; 150 μM pHLA-B*08:01 in the syringe titrated into 5 μM chTAPBPR in the cell, both with 0.45 mM FLRGRAJGL; 150 mM NaCl, 20 mM sodium phosphate pH 7.2; one-site model; apparent KD
[11] = molecular target: peptide-deficient (empty) HLA-A*02:01/hβ2m (human)
[12] = molecular target: peptide-deficient (empty) HLA-B*37:01/hβ2m (human)
[13] = molecular target: HLA-A*02:77/hβ2m loaded with a placeholder peptide (human)
[14] = molecular target: HLA-A*02:71/hβ2m loaded with a placeholder peptide (human)
[15] = molecular target: peptide-deficient (empty) HLA-A*02:01/hβ2m (human); remark: listed apart in the source
[16] = molecular target: peptide-deficient (empty) HLA-A*11:01/hβ2m (human)
[17] = molecular target: peptide-deficient (empty) HLA-A*24:02/hβ2m (human)
[18] = molecular target: peptide-deficient (empty) HLA-A*01:01/hβ2m (human)
[19] = molecular target: hTAPBPR^FLQ (S104F, K211L, R270Q), luminal domain, C94S (human); assay: SPR; biotinylated hTAPBPR mutants immobilised on a streptavidin chip; Ac-6-FP-loaded MR1 C262S flowed over at 0-100 µM; 25°C; 150 mM NaCl, 20 mM sodium phosphate pH 7.4, 0.1% Tween 20; one site-specific binding fit
[20] = molecular target: hTAPBPR^KRQ (R105K, K211R, R270Q), luminal domain, C94S (human); assay: as above
[21] = molecular target: hTAPBPR^RQ (K211R, R270Q), luminal domain, C94S (human); assay: as above
[22] = molecular target: peptide-loaded HLA-A*02:01/hβ2m (photolabile peptide KILGFVFJV) (human)
[23] = molecular target: HLA-A*02:06/hβ2m loaded with a placeholder peptide (human)
[24] = molecular target: chicken TAPBPR, luminal domain (chicken (G. gallus)); assay: SPR; biotinylated TAPBPR on a streptavidin chip; MR1 C262S injected at 0-100 μM; 25°C; 150 mM NaCl, 20 mM sodium phosphate pH 7.4, 0.1% Tween 20
[25] = molecular target: human TAPBPR (TAP binding protein, related), luminal domain (human); assay: as above

Question: For “peptide-deficient (empty) HLA-G*01:01/hβ2m (from UniProt P61769 21-119) (complex)”, which Kd [1] is on record?
Answer: 11200 nM

Question: How did the Kd [1] turn out when “peptide-deficient (empty) HLA-A*30:01/hβ2m (from UniProt P61769 21-119) (complex)” was run?
Answer: 1280 nM

Question: And the Kd [2]?
Answer: 990 nM

Question: Which results are given for “peptide-loaded HLA-A*02:01/hβ2m/KILGFVFJV (from UniProt P61769 21-119) (peptide-MHC)”?
Answer: Kd [3]: 1260 nM; Kd [4]: 1380 nM; Kd [5]: 1310 nM

Question: With “peptide-deficient (empty) HLA-A*01:01/hβ2m (from UniProt P61769 21-119) (complex)” as the substance, how does the Kd [1] read?
Answer: 1460 nM

Question: How did the Kd [2] turn out when “peptide-deficient (empty) HLA-E*01:03/hβ2m (from UniProt P61769 21-119) (complex)” was run?
Answer: 1510 nM

Question: What does the source list for “peptide-deficient (empty) HLA-A*02:01/hβ2m (from UniProt P61769 21-119) (complex)”?
Answer: Kd [1]: 2960 nM; Kd [2]: 170 nM; Kd [6]: 188 nM; Kd [7]: 81 nM

Question: “peptide-loaded HLA-A*30:01/hβ2m (photolabile peptide) (from UniProt P61769 21-119) (peptide-MHC)” was tested. Which Kd [8] did it give?
Answer: 950 nM

Question: “peptide-deficient (empty) HLA-A*68:02/hβ2m (from UniProt P61769 21-119) (complex)” was tested. Which Kd [1] did it give?
Answer: 430 nM

Question: What about the Kd [2] of the same substance?
Answer: 120 nM

Question: Which Kd [1] does the source give for “peptide-deficient (empty) HLA-B*37:01/hβ2m (from UniProt P61769 21-119) (complex)” here?
Answer: 2190 nM

Question: And the Kd [2]?
Answer: 7020 nM

Question: For “peptide-loaded HLA-A*02:01/hβ2m (photolabile peptide KILGFVFJV) (from UniProt P61769 21-119) (peptide-MHC)”, which Kd [8] is on record?
Answer: 9440 nM

Question: “peptide-loaded HLA-B*08:01/hβ2m (photolabile peptide FLRGRAJGL) (from UniProt P61769 21-119) (peptide-MHC)” was tested. Which Kd [9] did it give?
Answer: 3190 nM

Question: What about the Kd [10] of the same substance?
Answer: 4600 nM

Question: What does the source list for “peptide-loaded HLA-A*24:02/hβ2m (photolabile peptide VYGJVRACL) (from UniProt P61769 21-119) (peptide-MHC)”?
Answer: Kd [9]: 17400 nM; Kd [8]: 10900 nM

Question: With “peptide-deficient (empty) HLA-A*24:02/hβ2m (from UniProt P61769 21-119) (complex)” as the substance, how does the Kd [1] read?
Answer: 1680 nM

Question: What about the Kd [2] of the same substance?
Answer: 2540 nM

Question: What does the source list for “peptide-deficient (empty) HLA-A*29:02/hβ2m (from UniProt P61769 21-119) (complex)”?
Answer: Kd [1]: 290 nM; Kd [2]: 260 nM

Question: How did the k2overall of peptide exchange (FP), against chTAPBPR [11] turn out when “human TAPBPR (TAP binding protein, related), luminal domain (domain or fragment)” was run?
Answer: 8 fold

Question: And the k2overall of peptide exchange (FP), against chTAPBPR [12]?
Answer: 5 fold lower

Question: What about the k2overall of peptide exchange (FP) [13] of the same substance?
Answer: 17200 M⁻¹ s⁻¹

Question: And the k2overall of peptide exchange (FP) [14]?
Answer: 335 M⁻¹ s⁻¹

Question: What about the k2overall of peptide exchange (FP) [15] of the same substance?
Answer: 1160 M⁻¹ s⁻¹

Question: With “peptide-loaded HLA-A*29:02/hβ2m (photolabile peptide) (from UniProt P61769 21-119) (peptide-MHC)” as the substance, how does the Kd [9] read?
Answer: 170 nM

Question: What about the Kd [8] of the same substance?
Answer: 190 nM

Question: Which results are given for “chicken TAPBPR, luminal domain (domain or fragment)”?
Answer: overall exchange rate (FP), against hTAPBPR [16]: > 17 fold; overall exchange rate (FP), against hTAPBPR [17]: > 7 fold; kapp of fluorescent peptide binding to HLA-A*01:01 with 5 μM TAPBPR (FP) [18]: 0.00017 s⁻¹

Question: What does the source list for “MR1 C262S loaded with acetyl-6-formylpterin (Ac-6-FP) (complex)”?
Answer: Kd [19]: 48000 nM; Kd [20]: 62000 nM; Kd [21]: 49500 nM

Question: How did the k2overall of exchange of KILGFVFβFV-loaded HLA-A*02:01 with TAMRA-[…] (FP), against hTAPBPR [22] turn out when “hTAPBPR^FLQ (S104F, K211L, and R270Q), soluble ectodomain (domain or fragment)” was run?
Answer: 90 fold

Question: What about the k2overall of peptide exchange (FP), against hTAPBPR [23] of the same substance?
Answer: 14 fold

Question: What about the kapp of fluorescent peptide binding to HLA-A*01:01 with 5 μM TAPBPR (FP) [18] of the same substance?
Answer: 7e-05 s⁻¹

Question: For “hTAPBPR^KRQ (R105K, K211R, and R270Q), soluble ectodomain (domain or fragment)”, which k2overall of exchange of KILGFVFβFV-loaded HLA-A*02:01 with TAMRA-[…] (FP), against hTAPBPR [22] is on record?
Answer: 60 fold

Question: What about the k2overall of peptide exchange (FP), against hTAPBPR [23] of the same substance?
Answer: 9 fold

Question: And the kapp of fluorescent peptide binding to HLA-A*01:01 with 5 μM TAPBPR (FP) [18]?
Answer: 0.00013 s⁻¹

Question: “peptide-deficient (empty) HLA-A*11:01/hβ2m (from UniProt P61769 21-119) (complex)” was tested. Which Kd [1] did it give?
Answer: 910 nM

Question: What about the Kd [2] of the same substance?
Answer: 2040 nM

Question: For “peptide-deficient (empty) HLA-B*08:01/hβ2m (from UniProt P61769 21-119) (complex)”, which Kd [1] is on record?
Answer: 1890 nM

Question: How did the k2overall of exchange of KILGFVFβFV-loaded HLA-A*02:01 with TAMRA-[…] (FP), against hTAPBPR [22] turn out when “hTAPBPR^RQ (K211R and R270Q), soluble ectodomain (domain or fragment)” was run?
Answer: 60 fold

Question: What about the k2overall of peptide exchange (FP), against hTAPBPR [23] of the same substance?
Answer: 9 fold

Question: What about the kapp of fluorescent peptide binding to HLA-A*01:01 with 5 μM TAPBPR (FP) [18] of the same substance?
Answer: 0.00014 s⁻¹

Question: How did the Kd [24] turn out when “acetyl-6-formylpterin-loaded MR1 C262S/hβ2m (from UniProt P61769 21-119) (complex)” was run?
Answer: 19200 nM

Question: And the Kd [25]?
Answer: 98700 nM

Question: How did the Kd [9] turn out when “peptide-loaded HLA-A*68:02/hβ2m (photolabile peptide) (from UniProt P61769 21-119) (peptide-MHC)” was run?
Answer: 560 nM

Question: And the Kd [8]?
Answer: 220 nM
